Test results published in US20130196377A1 (SAMSUNG ELECTRONICS, published 2013).

Biological target: T1, human EGFR extracellular domain (Prospec) (human, UniProt P00533 25-645)
T1 construct: extracellular domain; Bought protein; also called epidermal growth factor receptor
Assay: SPR (Biacore T100); antibody captured on anti-human IgG CM5 chip, EGFR extracellular domain 6.25-100 nM as analyte; 1:1 Langmuir model
Excerpt: 1× HBS-EP (GE healthcare) was used as a running buffer and a dilution buffer. About 5,000 RU (response unit) of an Anti-human IgG antibody (Jackson Immuno Research) were immobilized on a surface of a CM5 chip (GE healthcare) by standard amine-coupling. […] A contact time (association phase) was 180 seconds, and a separation time (washing with running buffer) was 600 seconds. After each binding cycle was terminated, Glycine-HCl pH 2.0 (GE healthcare) as a regeneration solution was flown onto the chip at a flow rate of 50 μL/min for 1 minute to remove the combined antigen and antibody from the chip. A sensorgram was obtained therefrom such that a fitting process was performed in BIA evaluation software by using a 1:1 Langmuir binding model for the EGFR case and by using a bivalent analyte model for the VEGF case.

- Kd: 4.91 nM
B1: (E2)2, monospecific antibody recognizing the EGFR (antibody, human IgG1, V domains shown)
VL: DIQMTQSPTSLSASVGDRVTITCRASQWIGNLLDWYQQKPGEAPKLLIYYASFLQSGVPSRFSGGGFGTDFTLTISSLQPEDFATYYCQQANPAPLTFGQGTKVEIKR
notes: Homodimer of E2-hinge-Fc chains, inferred from the label (E2)2
